The chains are these.
B1: LptE (natural protein)
chain: not shown
modifications: tri-acylated (mature and tri-acylated protein)
notes: LptE, E. coli, UniProt P0ADC1; mature and tri-acylated lipoprotein (theoretical mass 20,248 Da); Untagged; source: E. coli BW25113 ΔlptM, overproduced from pLptDEM^His; DDM-solubilized envelope fraction
B2: LptM^His (natural protein, Escherichia coli, UniProt P0ADN6 20-67, looked up)
chain: CGLKGPLYFPPADKNAPPPTKPVETQTQSTVPDKNDRATGDGPSQVNY
modifications: also: tri-acylated
notes: LptM (formerly YifL), E. coli, UniProt P0ADN6; mature and tri-acylated lipoprotein (theoretical mass with the tag 6,988 Da); also called C-terminally poly-histidine tagged version of E. coli LptM; YifL; source: E. coli BW25113 ΔlptM, overproduced from pLptDEM^His or pLptM^His; DDM-solubilized envelope fraction; not shown: poly-histidine, C-terminal, kept
B3: LptD (natural protein, Escherichia coli, UniProt P31554 25-784, looked up)
chain: ADLASQCMLGVPSYDRPLVQGDTNDLPVTINADHAKGDYPDDAVFTGSVDIMQGNSRLQADEVQLHQKEAPGQPEPVRTVDALGNVHYDDNQVILKGPKGWANLNTKDTNVWEGDYQMVGRQGRGKADLMKQRGENRYTILDNGSFTSCLPGSDTWSVVGSEIIHDREEQVAEIWNARFKVGPVPIFYSPYLQLPVGDKRRSGFLIPNAKYTTTNYFEFYLPYYWNIAPNMDATITPHYMHRRGNIMWENEFRYLSQAGAGLMELDYLPSDKVYEDEHPNDDSSRRWLFYWNHSGVMDQVWRFNVDYTKVSDPSYFNDFDNKYGSSTDGYATQKFSVGYAVQNFNATVSTKQFQVFSEQNTSSYSAEPQLDVNYYQNDVGPFDTRIYGQAVHFVNTRDDMPEATRVHLEPTINLPLSNNWGSINTEAKLLATHYQQTNLDWYNSRNTTKLDESVNRVMPQFKVDGKMVFERDMEMLAPGYTQTLEPRAQYLYVPYRDQSDIYNYDSSLLQSDYSGLFRDRTYGGLDRIASANQVTTGVTSRIYDDAAVERFNISVGQIYYFTESRTGDDNITWENDDKTGSLVWAGDTYWRISERWGLRGGIQYDTRLDNVATSNSSIEYRRDEDRLVQLNYRYASPEYIQATLPKYYSTAEQYKNGISQVGAVASWPIADRWSIVGAYYYDTNANKQADSMLGVQYSSCCYAIRVGYERKLNGWDNDKQHAVYDNAIGFNIELRGLSSNYGLGTQEMLRSNILPYQNTL
notes: LptD, E. coli, UniProt P31554; mature protein (theoretical mass 87,080 Da); Untagged; Cysteines at 31, 173, 724 and 725 (C1 to C4); the mature oxidized form LptD^Ox has the disulfides C1-C3 and C2-C4; samples from ΔlptM cells also hold partially oxidized forms; also called LptD^CCCC; wild-type LptD; source: E. coli BW25113 (wild-type or ΔlptM), overproduced from pLptDE^His or pLptDEM^His; …

Where no end group is shown, it is not given here.

The assay “LptM^His” deals with B2. As to the kind of experiment: native MS; co-expressed and Ni-affinity co-purified complexes LptDE^His and LptDEM^His, ~10-20 μM in 200 mM ammonium acetate pH 7.4, 0.03% DDM; nano-electrospray, positive ion mode. The conditions noted are these: both partners purified.
Assay [1] concerns the target B3. Put plainly: HDX-MS; LPS translocon produced in the presence or absence of LptM, purified in detergent micelles; 20 μM protein diluted in deuterated buffer (20 mM MES pH 6.5, 200 mM NaCl), 20 °C, 0.5 to 30 min; pepsin digestion. The conditions noted are these: both partners purified.
Assay [2] concerns the target B1. Described as above. The conditions noted are these: both partners purified.
Assay [3] has as its target B1. Put plainly: native MS; co-expressed and Ni-affinity co-purified complexes LptDE^His and LptDEM^His, ~10-20 μM in 200 mM ammonium acetate pH 7.4, 0.03% DDM; nano-electrospray, positive ion mode. Conditions: both partners purified.
Assay [4] addresses B3. As to the kind of experiment: pull-down; Ni-affinity purification of LptE^His from the DDM-solubilized envelope fraction of wild-type (lptM^+) cells with pLptDE^His; Ni-NTA 2 h at 4 °C, 50 mM Tris-HCl pH 8, 150 mM NaCl, DDM; SDS-PAGE or BN-PAGE, Coomassie staining or Western blotting. Conditions: partners not purified. On the technique in general: In western blotting, separated proteins are transferred to a membrane and probed.

By stoichiometry N is commonly meant the number of molecules, sites or subunits per partner or assembly.

In the case of B1, the “stoichiometry N” value with LptM^His is 1.
On to B2, for which the binding result in the assay with LptD [1] and in the assay with LptE [2] was “binds” throughout.
For the molecule B3, the “stoichiometry N” value with LptE [3] and with LptM^His was 1 in each case.

B4: LptE^His (natural protein)
chain: not shown
modifications: tri-acylated (mature and tri-acylated protein)
notes: LptE, E. coli, UniProt P0ADC1; mature and tri-acylated lipoprotein (theoretical mass with the tag 21,348 Da); also called C-terminally poly-histidine tagged variant of LptE; source: E. coli BW25113 (wild-type or ΔlptM), overproduced from pLptDE^His or pLptDME^His; DDM-solubilized envelope fraction; not shown: poly-histidine, C-terminal, kept
Take B4: in the assay with LptD [4], the binding result is on record as “binds”.

Source of the values: publication PMC10567701 (Nature Communications, 2023).
